Source: US20220259303A1 (ZHEJIANG DOER BIOLOGICS, published 2022)
Residue numbers refer to the chain shown, from its start.

B1: Anti-CLDN18×CD3-hu6V3 (bispecific antibody)
chain: QVQLVESGGGLVQPGGSLRLSCAASGGIFSIGVMGWYRQAPGKGLELVATITSRGSTNYADSVKGRFTISRDNSKNTLYLQMNSLRAEDTAVYYCYADLIRPGDFYGMDYWGQGTLVTVSSGGGGSGGGGSGGGGSGGGGSGGGGSGGGGSGGGGSEVQLVESGGGPVQAGGSLRLSCAASGRTYRGYSMGWFRQAPGKEREFVAAIVWSGGNTYYEDSVKGRFTISRDNAKNTMYLQMTSLKPEDSATYYCAAKIRPYIFKIAGQYDYWGQGTQVTVSS
notes: Bispecific VHH; Expressed in Pichia pastoris; also called Anti-CLDN18×CD3 fusion protein
B2: Anti-C18.2-69 (VHH, not shown: small tags and cut ends)
VHH: QVQLVESGGGLVQPGGSLRLSCAASGSIFSIPVMTWYRQALGKEREFVAGISKGGTSNYADSVKGRFTVSRDNAKNTVYLQMNSLKSEDTAVYYCNAQASSFGWMPLSDYWGQGTQVTVSS
notes: Treated as one molecule; also called C18-69
B3: Anti-C18.2-6 (VHH, not shown: small tags and cut ends)
VHH: QLQLVESGGGLVQPGGSLRLSCAASGGIFSIGVMGWYRQAPGKQRELVATITSRGSTNYADSVKGRFTISGDNAKNTVYLQMNNLKPEDTAVYYCYADLIRPGDFYGMDYWGKGTLVTVSS
notes: Treated as one molecule; also called C18-6
B4: Anti-C18.2-19 (VHH, not shown: small tags and cut ends)
VHH: QLQLVESGGGLVQPGGSLRLSCAASGVDISSDVMAWYRQAPGKQREFVSGLTRGGSINYADSVKGRFTISRDFAKNTVDLQMNSLKPEDTAVYYCNAEIYTGTFYPRSYWGQGTQVTVSS
notes: Treated as one molecule; also called C18-19
B5: Anti-CLDN18×CD3-hu19V3 (bispecific antibody)
chain: QVQLVESGGGLVQPGGSLRLSCAASGVDISSDVMAWYRQAPGKGLEFVSGLTRGGSINYADSVKGRFTISRDNSKNTLYLQMNSLRAEDTAVYYCNAEIYTGTFYPRSYWGQGTLVTVSSGGGGSGGGGSGGGGSGGGGSGGGGSGGGGSGGGGSEVQLVESGGGPVQAGGSLRLSCAASGRTYRGYSMGWFRQAPGKEREFVAAIVWSGGNTYYEDSVKGRFTISRDNAKNTMYLQMTSLKPEDSATYYCAAKIRPYIFKIAGQYDYWGQGTQVTVSS
notes: as for B1
B6: ch-175D10 (antibody, V domains shown)
VH: QVQLQQPGAELVRPGASVKLSCKASGYTFTSYWINWVKQRPGQGLEWIGNIYPSDSYTNYNQKFKDKATLTVDKSSSTAYMQLSSPTSEDSAVYYCTRSWRGNSFDYWGQGTTLTVSS
VL: DIVMTQSPSSLTVTAGEKVTMSCKSSQSLLNSGNQKNYLTWYQQKPGQPPKLLIYWASTRESGVPDRFTGSGSGTDFTLTISSVQAEDLAVYYCQNDYSYPFTFGSGTKLEIKR
B7: Anti-C18.2-15 (VHH, not shown: small tags and cut ends)
VHH: QVQLVESGGGLVQPGGSLRLSCTASGSIFRIDGMHWYRQAPGKQRELVASITPSGITHYADSVKGRFTISRDIAKKMQYLQMNSLKPEDTAVYYCNAHLVKVGGVWSDEYWGQGTQVTVSS
notes: Treated as one molecule; also called C18-15
B8: Anti-C18.2-20 (VHH, not shown: small tags and cut ends)
VHH: QVQLVESGGGLVQPGGSLRLSCAASGSIFSINAMGWYRQAPGKQRELVAAITFGGGSTNYADSVKGRFTISRDNAKNTVYLQMNSLKPEDTAVYYCNADLLVGGFPRRNVYWGQGTQVTVSS
notes: Treated as one molecule; also called C18-20
B9: Anti-C18.2-32 (VHH, not shown: small tags and cut ends)
VHH: QLQLVESGGGLVQPGGSLRLSCAASGEISSDAMAWYRQAPGKQRELVAGMTRGGSTNYADSVKGRFTISRDFAKNTVDLQMNSLKPEDTAVYYCNAEIYTGTFYPRSYWGQGTQVTVSS
notes: Treated as one molecule; also called C18-32
B10: Anti-C18.2-7 (VHH, not shown: small tags and cut ends)
VHH: QVQLVESGGGLVQPGGSLRLSCAASGSIFLINAMGWYRQAPGKQRELVAVITRGGSANYTDSVKGRFTISRDNAKNTVYLQMNSLKPEDTAVYYCNADLNLRSDPFKWYTFWGQGTQVTVSS
notes: Treated as one molecule; also called C18-7
B11: Anti-C18.2-28 (VHH, not shown: small tags and cut ends)
VHH: B10 VHH with L30M, A33V, G55A, A57T, T60A, R102A, F111Y
notes: Treated as one molecule; also called C18-28

Columns and labels:
CLD18A2 [1] = target: T1, CLD18A2; assay: cell ELISA on CHO-S-CLD18A2, anti-his tag detection
T1 construct: also called claudin 18 splice variant A2; CHO-S-CLD18A2
Experimental: (§1) CHO-S-CLD18A2 cells are plated in a 96-well plate at 5×10⁵ cells per well, and blocked with 3% BSA at room temperature for 1 h. The purified Anti-CLD18A2 VHH fused with histidine tag is diluted in gradients with 1% BSA, added to the blocked cells, and incubated for 1 h at room temperature. After washing, 100 μl/well of 1:5000 diluted mouse anti-his tag antibody (R&D Systems, Inc) was added and incubated at room temperature for 1 h. After washing, 100 μl/well of 1:10000 diluted HRP-Goat anti-mouse IgG antibody (Thermo Scientific) was added and incubated for 1 h at room temperature. After washing, TMB was added to develop color. The OD value is detected at 450 nm. The software GraphPad Prism v5.0 is used for data processing and mapping analysis, and the EC50 value of Anti-CLD18A2 VHH against CLD18A2 on cells is obtained to reflect the affinity of the VHH to CLD18A2.
(§2) CHO-S-CLD18A2 and Jurkat cells are plated in 96-well plates at 5×10⁵/ml per well, and blocked with 3% BSA for 1 hat room temperature. The purified Anti-CLDN18×CD3 fusion protein, the Anti-C18.2-6 and Anti-C18.2-19 VHH prepared in Embodiment 4, and the anti-CD3 VHH are diluted in gradients with 1% BSA, and then added into the pre-blocked cells respectively, and then incubated at room temperature for 1 h. The following experimental process is the same as in Embodiment 4.3. […]

CD3 = target: T2, CD3 (human, UniProt P07766 23-207; P09693 23-182; P04234 22-171; P20963 22-164); assay: cell ELISA on CD3-positive Jurkat cells, anti-his tag detection
T2 construct: whole, on cells; also called CD3 positive cell Jurkat; cluster of differentiation 3
Experimental: as §1, §2

CLD18A2 [2] = target: T1, CLD18A2; assay: cell-based or functional assay
CLD18A2 [3] = target: T1, CLD18A2; assay: cell ELISA, purified VHH 2 µg/ml on CHO-S-CLD18A2
Experimental: (§3) CHO-S, CHO-S-CLD18A1, and CHO-S-CLD18A2 are plated in 96-well plates at 5×10⁵ cells per well, and blocked with 3% BSA at room temperature for 1 h. The purified Anti-CLD18A2 VHH with HIS-tag is diluted to 2 μg/ml, add 100 μl to the blocked cells, and incubated for 1 h at room temperature. After washing, 100 μl/well of 1:5000 diluted mouse anti-his tag antibody (R&D Systems, Inc) was added and incubated at room temperature for 1 h. After washing, 100 μl/well of 1:10000 diluted HRP-Goat anti-mouse IgG antibody (Thermo Scientific) was added and incubated for 1 h at room temperature. After washing, TMB was added to develop color. The OD value is measured at 450 nm.

CLD18A2 [4] = target: T1, CLD18A2; assay: cell ELISA, E. coli expression supernatant on CHO-S-CLD18A2
Experimental: (§4) The clones selected according to the results of the 96-well plates of CHO-S, CHO-S-CLD18A1, and CHO-S-CLD18A2 cells are cultured. pcomb3XSS plasmids containing a single VHH sequence are extracted, and transformed into E. coli respectively to expression host Rosetta DE3. The respective expression clones are selected and cultured, then induced with 0.2 mM IPTG at 30° C. overnight to facilitate the periplasm-expressed proteins leakage into the culture medium supernatant. The culture medium supernatant of 16 clones are examined by ELISA again: adding 100 μl/well of 1:5000 diluted mouse anti his tag antibody (R&D Systems, Inc), incubating at room temperature for 1 h, washing, adding 100 μl/well of 1:10000 diluted HRP-Goat anti-mouse IgG antibody (Thermo Scientific), incubating for 1 h at room temperature, and adding TMB to develop color after washing. The negative control is a clone transfected with negative plasmid. The cell ELISA results are shown in Table 1, and the specific binding clones are further selected. These clones are sequenced respectively. Amino acid sequence alignment is performed. Clones with identical sequences are removed and finally 8 different clones are obtained.

CLD18A1 [5] = target: T3, CLD18A1 (Homo sapiens (Human), UniProt P56856 1-261); assay: cell ELISA, purified HIS-tagged VHH on CHO-S-CLD18A1
T3 construct: also called claudin 18 splice variant A1; CHO-S-CLD18A1
Experimental: as §3

CLD18A2 [6] = target: T1, CLD18A2; assay: cell ELISA, his-tagged VHH titrated on CHO-S-CLD18A2
Experimental: as §1

CLD18A1 [7] = target: T3, CLD18A1; assay: cell ELISA, E. coli expression supernatant on CHO-S-CLD18A1
Experimental: as §4

CLD18A2 [8] = target: T1, CLD18A2; assay: cell ELISA on CLD18A2-expressing cells, anti-human IgG Fc detection
Experimental: The Anti-C18.2-Fc fusion proteins are diluted in gradients with 1% BSA, and the HRP-Goat anti-Human IgG Fc (Novex) secondary antibody is diluted 1:20000. The cell ELISA method is the same as that described in Embodiment 3.2. The software GraphPad Prism v5.0 is used for data processing and mapping analysis. The binding curve and EC50 value of Anti-C18.2-Fc against CLD18A2 in cells are obtained to reflect the affinity of the antibody to CLD18A2.
The affinities of Anti-C18.2-hu19V1-Fc and Anti-C18.2-hu19V3-Fc are similar to that of Anti-C18.2-19-Fc, which are better than that of the positive control ch-175D10.

T3 sequence (P56856 whole entry, canonical isoform): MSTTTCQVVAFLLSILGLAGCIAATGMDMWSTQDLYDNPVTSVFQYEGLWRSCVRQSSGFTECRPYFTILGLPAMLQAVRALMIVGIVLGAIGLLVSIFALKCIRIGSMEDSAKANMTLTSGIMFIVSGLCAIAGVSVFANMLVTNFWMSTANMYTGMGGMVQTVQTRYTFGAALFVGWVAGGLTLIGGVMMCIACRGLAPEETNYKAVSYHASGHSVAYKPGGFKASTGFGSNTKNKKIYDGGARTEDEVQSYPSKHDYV
T2 sequence (P07766 23-207, chain 1 of 4): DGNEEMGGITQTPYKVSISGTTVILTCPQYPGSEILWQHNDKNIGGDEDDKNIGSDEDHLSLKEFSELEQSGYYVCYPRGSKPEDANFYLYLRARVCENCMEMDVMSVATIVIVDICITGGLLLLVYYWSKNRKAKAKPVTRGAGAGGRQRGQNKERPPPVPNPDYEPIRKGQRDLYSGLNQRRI
T2 sequence (P09693 23-182, chain 2 of 4): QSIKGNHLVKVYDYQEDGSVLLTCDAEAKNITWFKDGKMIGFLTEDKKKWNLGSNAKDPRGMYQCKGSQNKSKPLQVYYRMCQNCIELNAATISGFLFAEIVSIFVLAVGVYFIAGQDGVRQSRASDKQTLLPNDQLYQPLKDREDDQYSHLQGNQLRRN
T2 sequence (P04234 22-171, chain 3 of 4): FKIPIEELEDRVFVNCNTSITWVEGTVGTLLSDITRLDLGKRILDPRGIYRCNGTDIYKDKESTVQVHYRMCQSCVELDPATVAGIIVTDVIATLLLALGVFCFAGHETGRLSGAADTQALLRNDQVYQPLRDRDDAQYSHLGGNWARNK
T2 sequence (P20963 22-164, chain 4 of 4): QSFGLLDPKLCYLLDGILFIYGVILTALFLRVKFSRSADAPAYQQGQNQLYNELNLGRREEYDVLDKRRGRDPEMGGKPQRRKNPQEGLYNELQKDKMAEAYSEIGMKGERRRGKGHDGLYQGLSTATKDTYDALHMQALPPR

Binder | EC50 (CLD18A2 [1]) [nM] | EC50 (CD3) [nM] | EC50 of killing of NUGC-4-CLD18A2 with T cells (LDH release, E:T 10:1) (CLD18A2 [2]) [nM] | OD450 nm (CLD18A2 [3]) [OD450 nm] | OD450 nm (CLD18A2 [4]) [OD450 nm] | binding result (CLD18A1 [5]) | EC50 (CLD18A2 [6]) [nM] | OD450 nm (CLD18A1 [7]) [OD450 nm] | EC50 (CLD18A2 [8]) [nM]
B1 | 6.5 | 9.39 | 0.0261 |  |  |  |  |  | 
B2 |  |  |  | 0.573 | 0.608 | no binding (tested: 2 µg/ml) | 2.23 | 0.253 | 
B3 |  |  |  | 0.719 | 0.623 | no binding (tested: 2 µg/ml) | 1.53 | 0.142 | 
B4 |  |  |  | 0.668 | 0.565 | no binding (tested: 2 µg/ml) | 1.25 | 0.121 | 
B5 | 4.6 | 10.4 | 0.0207 |  |  |  |  |  | 
B6 |  |  |  |  |  |  |  |  | 2.59
B7 |  |  |  | 0.671 | 0.685 | no binding (tested: 2 µg/ml) | 2.89 | 0.189 | 
B8 |  |  |  | 0.621 | 0.528 | no binding (tested: 2 µg/ml) | 1.87 | 0.128 | 
B9 |  |  |  | 0.586 | 0.526 | no binding (tested: 2 µg/ml) | 2.21 | 0.107 | 
B10 |  |  |  | 0.658 | 0.594 | no binding (tested: 2 µg/ml) | 2.12 | 0.132 | 
B11 |  |  |  | 0.598 | 0.47 | no binding (tested: 2 µg/ml) | 2.54 | 0.121 | 
